Experimental data as given in patent US20070219139A1 (POSCO, published 2007).
Where no end group is shown, it is not given here. [ ]: non-standard residue; d: D form.

B1: Trp-Lys-Tyr-Met-Tyr-D-Met-NH2 (peptide)
peptide: WKYMY[dM]-NH2
modifications: N-terminus assumed
SMILES: CSCC[C@H](NC(=O)[C@H](Cc1ccc(O)cc1)NC(=O)[C@H](CCCCN)NC(=O)[C@@H](N)Cc1c[nH]c2ccccc12)C(=O)N[C@@H](Cc1ccc(O)cc1)C(=O)N[C@H](CCSC)C(N)=O
B2: Met-Val-D-Met-NH2 (peptide)
peptide: Met-Val-[dM]-NH2
modifications: N-terminus assumed
SMILES: CSCC[C@H](N)C(=O)N[C@H](C(=O)N[C@H](CCSC)C(N)=O)C(C)C
B3: Trp-Lys-Arg-Met-Val-D-Met-NH2 (peptide)
peptide: WKRMV[dM]-NH2
modifications: N-terminus assumed
SMILES: CSCC[C@H](NC(=O)[C@H](CCCNC(=N)N)NC(=O)[C@H](CCCCN)NC(=O)[C@@H](N)Cc1c[nH]c2ccccc12)C(=O)N[C@H](C(=O)N[C@H](CCSC)C(N)=O)C(C)C
B4: Trp-Lys-Gly-Met-Val-D-Met-NH2 (peptide)
peptide: WKGMV[dM]-NH2
modifications: N-terminus assumed
SMILES: CSCC[C@H](NC(=O)CNC(=O)[C@H](CCCCN)NC(=O)[C@@H](N)Cc1c[nH]c2ccccc12)C(=O)N[C@H](C(=O)N[C@H](CCSC)C(N)=O)C(C)C
B5: Trp-Lys-Tyr-Met-Gly-D-Met-NH2 (peptide)
peptide: WKYMG[dM]-NH2
modifications: N-terminus assumed
SMILES: CSCC[C@H](NC(=O)[C@H](Cc1ccc(O)cc1)NC(=O)[C@H](CCCCN)NC(=O)[C@@H](N)Cc1c[nH]c2ccccc12)C(=O)NCC(=O)N[C@H](CCSC)C(N)=O
B6: Trp-Lys-Phe-Met-Val-D-Met-NH2 (peptide)
peptide: WKFMV[dM]-NH2
modifications: N-terminus assumed
SMILES: CSCC[C@H](NC(=O)[C@H](Cc1ccccc1)NC(=O)[C@H](CCCCN)NC(=O)[C@@H](N)Cc1c[nH]c2ccccc12)C(=O)N[C@H](C(=O)N[C@H](CCSC)C(N)=O)C(C)C
B7: Trp-Lys-Asp-Met-Val-D-Met-NH2 (peptide)
peptide: WKDMV[dM]-NH2
modifications: N-terminus assumed
SMILES: CSCC[C@H](NC(=O)[C@H](CC(=O)O)NC(=O)[C@H](CCCCN)NC(=O)[C@@H](N)Cc1c[nH]c2ccccc12)C(=O)N[C@H](C(=O)N[C@H](CCSC)C(N)=O)C(C)C
B8: Trp-Arg-Tyr-Met-Val-D-Met-NH2 (peptide)
peptide: WRYMV[dM]-NH2
modifications: N-terminus assumed
SMILES: CSCC[C@H](NC(=O)[C@H](Cc1ccc(O)cc1)NC(=O)[C@H](CCCNC(=N)N)NC(=O)[C@@H](N)Cc1c[nH]c2ccccc12)C(=O)N[C@H](C(=O)N[C@H](CCSC)C(N)=O)C(C)C
B9: Trp-His-Tyr-Met-Val-D-Met-NH2 (peptide)
peptide: WHYMV[dM]-NH2
modifications: N-terminus assumed
SMILES: CSCC[C@H](NC(=O)[C@H](Cc1ccc(O)cc1)NC(=O)[C@H](Cc1c[nH]cn1)NC(=O)[C@@H](N)Cc1c[nH]c2ccccc12)C(=O)N[C@H](C(=O)N[C@H](CCSC)C(N)=O)C(C)C
B10: Trp-Lys-Glu-Met-Val-D-Met-NH2 (peptide)
peptide: WKEMV[dM]-NH2
modifications: N-terminus assumed
SMILES: CSCC[C@H](NC(=O)[C@H](CCC(=O)O)NC(=O)[C@H](CCCCN)NC(=O)[C@@H](N)Cc1c[nH]c2ccccc12)C(=O)N[C@H](C(=O)N[C@H](CCSC)C(N)=O)C(C)C
B11: Trp-Glu-Tyr-Met-Val-D-Met-NH2 (peptide)
peptide: WEYMV[dM]-NH2
modifications: N-terminus assumed
SMILES: CSCC[C@H](NC(=O)[C@H](Cc1ccc(O)cc1)NC(=O)[C@H](CCC(=O)O)NC(=O)[C@@H](N)Cc1c[nH]c2ccccc12)C(=O)N[C@H](C(=O)N[C@H](CCSC)C(N)=O)C(C)C
B12: Trp-Lys-Trp-Met-Val-D-Met-NH2 (peptide)
peptide: WKWMV[dM]-NH2
modifications: N-terminus assumed
SMILES: CSCC[C@H](NC(=O)[C@H](Cc1c[nH]c2ccccc12)NC(=O)[C@H](CCCCN)NC(=O)[C@@H](N)Cc1c[nH]c2ccccc12)C(=O)N[C@H](C(=O)N[C@H](CCSC)C(N)=O)C(C)C
B13: Trp-Asp-Tyr-Met-Val-D-Met-NH2 (peptide)
peptide: WDYMV[dM]-NH2
modifications: N-terminus assumed
SMILES: CSCC[C@H](NC(=O)[C@H](Cc1ccc(O)cc1)NC(=O)[C@H](CC(=O)O)NC(=O)[C@@H](N)Cc1c[nH]c2ccccc12)C(=O)N[C@H](C(=O)N[C@H](CCSC)C(N)=O)C(C)C
B14: Trp-Lys-His-Met-Val-D-Met-NH2 (peptide)
peptide: WKHMV[dM]-NH2
modifications: N-terminus assumed
SMILES: CSCC[C@H](NC(=O)[C@H](Cc1c[nH]cn1)NC(=O)[C@H](CCCCN)NC(=O)[C@@H](N)Cc1c[nH]c2ccccc12)C(=O)N[C@H](C(=O)N[C@H](CCSC)C(N)=O)C(C)C

Key:
Assay in all cases: cell-based or functional assay
[1] = target: T1, formyl peptide receptor-like 1 (UniProt P25090 1-351, limits assumed)
T1 sequence (looked up): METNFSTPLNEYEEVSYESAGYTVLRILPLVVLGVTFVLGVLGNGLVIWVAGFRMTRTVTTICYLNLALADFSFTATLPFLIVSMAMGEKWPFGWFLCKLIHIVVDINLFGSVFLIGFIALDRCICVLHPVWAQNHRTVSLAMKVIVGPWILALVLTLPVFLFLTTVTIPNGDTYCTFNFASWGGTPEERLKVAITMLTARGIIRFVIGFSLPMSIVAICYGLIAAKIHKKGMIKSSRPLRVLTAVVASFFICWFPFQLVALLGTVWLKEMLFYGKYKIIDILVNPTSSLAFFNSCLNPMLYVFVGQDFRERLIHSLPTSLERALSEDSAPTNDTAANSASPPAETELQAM

formyl peptide receptor [2] = target: T2, formyl peptide receptor (UniProt P21462 1-350, limits assumed)
T2 sequence (looked up): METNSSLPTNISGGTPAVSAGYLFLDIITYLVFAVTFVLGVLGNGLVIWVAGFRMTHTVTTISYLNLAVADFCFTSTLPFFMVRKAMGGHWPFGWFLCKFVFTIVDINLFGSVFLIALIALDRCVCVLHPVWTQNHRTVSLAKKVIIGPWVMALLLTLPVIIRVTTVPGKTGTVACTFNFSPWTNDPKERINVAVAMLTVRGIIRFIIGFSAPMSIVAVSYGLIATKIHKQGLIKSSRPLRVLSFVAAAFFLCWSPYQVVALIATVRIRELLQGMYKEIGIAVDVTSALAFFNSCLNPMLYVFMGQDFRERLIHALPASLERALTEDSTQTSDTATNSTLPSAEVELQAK

formyl peptide receptor [3] = target: T2, formyl peptide receptor; remark: listed apart in the source

Binder	EC50 of intracellular calcium increase in FPRL1-expressing RBL-2H3 cells (fura-2) [1] [nM]	EC50 of intracellular calcium increase in FPR-expressing RBL-2H3 cells (fura-2) (formyl peptide receptor [2]) [nM]	[Ca^2+]i increase in FPR-expressing RBL-2H3 cells (formyl peptide receptor [3]) [µM]
B1	0.29	665	–
WKYMVW-NH2 [Trp-Lys-Tyr-Met-Val-Trp-NH2]	194	–	> 20
B2	> 30000	–	–
B3	2.06	–	–
B4	21.3	–	> 20
WKYMVR-NH2 [Trp-Lys-Tyr-Met-Val-Arg-NH2]	178	–	> 20
WKYMVE-NH2 [Trp-Lys-Tyr-Met-Val-Glu-NH2]	503	–	> 20
B5	18.1	–	> 20
B6	0.23	17.7	–
WKYMVV-NH2 [Trp-Lys-Tyr-Met-Val-Val-NH2]	1260	–	> 20
KYMV-NH2 [Lys-Tyr-Met-Val-NH2]	> 30000	–	–
B7	8.73	1330	–
B8	0.12	54.9	–
WKYMVG-NH2 [Trp-Lys-Tyr-Met-Val-Gly-NH2]	5950	–	> 20
YMV[dM]-NH2 [Tyr-Met-Val-D-Met-NH2]	17.1	569	–
B9	0.72	31.7	–
B10	28.3	1330	–
B11	5.23	317	–
B12	0.16	18.8	–
B13	14.3	98.9	–
B14	1.94	280	–
WKYMV-NH2 [Trp-Lys-Tyr-Met-Val-NH2]	918	–	–
